Measured values published in US20190119346A1 (Stanford University, published 2019).

T1: human IL-2Rβ ectodomain (amino acids 1-214), C-terminal hexahistidine tag (human, UniProt P14784 27-240)
T1 construct: range 1-214; also called CD122; IL-2Rβ ECD
T1 sequence: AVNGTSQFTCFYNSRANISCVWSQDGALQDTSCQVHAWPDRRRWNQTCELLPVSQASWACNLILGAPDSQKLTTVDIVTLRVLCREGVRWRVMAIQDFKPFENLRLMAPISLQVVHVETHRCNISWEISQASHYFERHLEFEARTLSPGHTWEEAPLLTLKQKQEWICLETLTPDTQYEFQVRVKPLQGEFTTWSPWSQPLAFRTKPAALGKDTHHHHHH

T2: biotinylated IL-2Rβ ectodomain (C-terminal biotin acceptor peptide and hexahistidine tag) (human, UniProt P14784 27-240, C-terminally biotinylated (biotin acceptor peptide, BirA ligase))
T2 construct: range 1-214; Staining reagent for yeast; also called tetrameric IL-2Rβ; monomeric IL-2Rβ
T2 sequence: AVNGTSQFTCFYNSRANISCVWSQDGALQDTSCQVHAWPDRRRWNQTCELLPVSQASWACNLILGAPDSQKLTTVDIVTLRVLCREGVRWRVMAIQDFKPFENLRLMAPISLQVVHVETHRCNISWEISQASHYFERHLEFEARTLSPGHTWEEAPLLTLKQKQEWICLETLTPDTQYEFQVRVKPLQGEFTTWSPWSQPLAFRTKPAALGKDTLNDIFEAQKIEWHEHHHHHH


What was measured:
[1] = target: CD25 (IL-2Rα) on CD25+ YT-1 cells (human) (UniProt P01589); experiment: cell-based or functional assay
[2] = target: T1, human IL-2Rβ ectodomain (amino acids …); experiment: SPR
Protocol: Dissociation was then tracked for 200 s. An irrelevant biotinylated protein was immobilized in the reference channel to subtract non-specific binding from the measurements. Experiments were carried out in HBS-P+ buffer (GE Healthcare) supplemented with 0.2% BSA at 25° C. All binding studies were performed at a flow rate of […] to minimize mass transport contributions and prevent rebinding of the analyte. For all measurements, data analysis and determination of equilibrium and kinetic parameters were implemented using the Biacore T100 evaluation software version 2.0 assuming a 1:1 Langmuir binding model.

[3] = target: T1, human IL-2Rβ ectodomain (amino acids …); experiment: SPR (Example 10), recombinant protein
[4] = target: T1, human IL-2Rβ ectodomain (amino acids …); experiment: SPR affinities of D10 and wild-type IL-2, told with the structure
[5] = target: T1, human IL-2Rβ ectodomain (amino acids …); experiment: surface plasmon resonance
[6] = target: T2, biotinylated IL-2Rβ ectodomain …; experiment: yeast clone screen: labeling with 5 nM IL-2Rβ and then SAV-PE
Protocol: Selection of second generation IL-2 library: The library was subjected to five rounds of selection against IL-2Rβ (FIG. 2B). This selection method was performed exactly as with the first generation library, only with modifications to the concentrations of IL-2Rβ used (round 1—1 μM, round 2—100 nM, round 3—30 nM, round 4—30 nM, round 5—10 nM, all monomeric IL-2Rβ). Upon conclusion of selections, round four and round five yeast cultures were spread on SD-CAA plates, which yielded individual yeast colonies. 48 individual yeast clones from both rounds were grown in 96-well block format and screened by labeling with 5 nM IL-2Rβ and then SAV-PE.

Chain of CD25 (IL-2Rα) on CD25+ YT-1 cells (human) (P01589 22-272): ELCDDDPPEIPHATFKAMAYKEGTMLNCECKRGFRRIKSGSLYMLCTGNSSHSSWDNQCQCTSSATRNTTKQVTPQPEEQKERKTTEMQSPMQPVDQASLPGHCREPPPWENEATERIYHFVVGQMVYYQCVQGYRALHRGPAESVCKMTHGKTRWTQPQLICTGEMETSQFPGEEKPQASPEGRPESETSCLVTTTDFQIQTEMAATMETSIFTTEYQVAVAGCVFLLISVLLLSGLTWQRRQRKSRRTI

| Molecule | Kd [3] | koff [5] | binding result [6] | also measured |
| --- | --- | --- | --- | --- |
| IL-2 F42A (from UniProt P60568 21-153) (ligand) | – | – | – | STAT5 phosphorylation dose response on CD25+ YT-1 cells [1]: 1 log |
| H9-RET (H9 with L18R, Q22E and Q126T) (ligand) APTSSSTKKTQLQLEHLRLDLEMILNGINNYKNPKLTRMLTFKFYMPKKATELKHLQCLEEELKPLEEVLNLAQSKNFHFDPRDVVSNINVFVLELKGSETTFMCEYADETATIVEFLNRWITFCTSIISTLTHHHHHH | – | – | – | binding result [2]: binds |
| IL-2 mutein D10 (ligand, also called IL-2 D10; super-2) APTSSSTKKTQLQLEHLLLDLQMILNGINNYKNPKLTRMLTFKFYMPKKATELKHLQCLEEELKPLEEVLNLAHSKNFHFDPRDVVSNINVFVLELKGSETTFMCEYADETATIVEFLNRWITFCQSIISTLTHHHHHH | 1.2 nM | 0.0051 s⁻¹ | – | fold affinity gain [4]: ~300 fold; Kd [5]: 1.3 nM; kon [5]: 4.1e+06 M⁻¹ s⁻¹ |
| IL-2 mutein E10 (ligand) APTSSSTKKTQLQLEHLLLDLQMILNGINNYKNPKLTRMLTFKFYMPKKATELKHLQCLEEELKPLEEVLNLASSKNFHFDPRDVVSNINVFVLELKGSETTFMCEYADETATIVEFLNRWITFCQSIISTLTHHHHHH | 1.3 nM | 0.0055 s⁻¹ | – | – |
| IL-2 mutein C5 (ligand) APTSSSTKKTQLQLEHLLLDLQMILNGINNYKNPKLTRMLTFKFYMPKKATELKHLQCLEEELKPLEEVLNLANSKNFHVTPRDVVSNINVFVLELKGSETTFMCEYADETATIVEFLNRWITFCQSIISTLTHHHHHH | 10 nM | 0.016 s⁻¹ | – | – |
| IL-2 mutein G8 (ligand) APTSSSTKKTQLQLEHLLLDLQMILNGINNYKNPKLTRMLTFKFYMPKKATELKHLQCLEEELKPLEEVLNLANSKNFHFDPRDVVSNINVFVLELKGSETTFMCEYADETATIVEFLNRWITFCQSIISTLTHHHHHH | 1.5 nM | 0.0049 s⁻¹ | – | – |
| IL-2 mutein H4 (ligand) APTSSSTKKTQLQLEHLLLDLQMILNGINNYKNPKLTRMLTFKFYMPKKATELKHLQCLEEELKPLEEVLNLASSKNFHLTPRDVISNINVFVLELKGSETTFMCEYADETATIVEFLNRWITFCQSIISTLTHHHHHH | 14 nM | 0.013 s⁻¹ | – | – |
| IL-2 mutein B1 (ligand) APTSSSTKKTQLQLEHLLLDLQMILNGINNYKNPKLTRMLTFKFYMPKKATELKHLQCLEEELKPLEEVLNLANSKNFHFDPRDVVSNVNVFVLELKGSETTFMCEYADETATIVEFLNRWITFCQSIISTLTHHHHHH | 1.6 nM | 0.005 s⁻¹ | – | – |
| IL-2 mutein H9 (ligand, also called super-IL-2; super-2) APTSSSTKKTQLQLEHLLLDLQMILNGINNYKNPKLTRMLTFKFYMPKKATELKHLQCLEEELKPLEEVLNLAQSKNFHFDPRDVVSNINVFVLELKGSETTFMCEYADETATIVEFLNRWITFCQSIISTLTHHHHHH | 1.3 nM | 0.0056 s⁻¹ | – | Kd [5]: 1.4 nM; kon [5]: 4.1e+06 M⁻¹ s⁻¹ |
| yeast-displayed IL-2 clone G8 (ligand, Clone of the second generation yeast library; not shown: yeast display fusion partner and linker encoded by vector pCT302) APTSSSTKKTQLQLEHLLLDLQMILNGINNYKNPKLTRMLTFKFYMPKKATELKHLQCLEEELKPLEEVLNLANSKNFHFDPRDVVSNINVFVLELKGSETTFMCEYADETATIVEFLNRWITFCQSIISTLT | – | – | binds | – |
| yeast-displayed IL-2 clone B1 (ligand, Clone of the second generation yeast library; not shown: yeast display fusion partner and linker encoded by vector pCT302) APTSSSTKKTQLQLEHLLLDLQMILNGINNYKNPKLTRMLTFKFYMPKKATELKHLQCLEEELKPLEEVLNLANSKNFHFDPRDVVSNVNVFVLELKGSETTFMCEYADETATIVEFLNRWITFCQSIISTLT | – | – | binds | – |

Now from value to molecule, other results behind:

| Kd [3] | koff [5] | binding result [6] | Molecule | also measured |
| --- | --- | --- | --- | --- |
| – | – | binds | yeast-displayed IL-2 clone E10 (ligand, Clone of the second generation yeast library; not shown: yeast display fusion partner and linker encoded by vector pCT302) APTSSSTKKTQLQLEHLLLDLQMILNGINNYKNPKLTRMLTFKFYMPKKATELKHLQCLEEELKPLEEVLNLASSKNFHFDPRDVVSNINVFVLELKGSETTFMCEYADETATIVEFLNRWITFCQSIISTLT | – |
| – | – | binds | yeast-displayed IL-2 clone D10 (ligand, Clone of the second generation yeast library; not shown: yeast display fusion partner and linker encoded by vector pCT302) APTSSSTKKTQLQLEHLLLDLQMILNGINNYKNPKLTRMLTFKFYMPKKATELKHLQCLEEELKPLEEVLNLAHSKNFHFDPRDVVSNINVFVLELKGSETTFMCEYADETATIVEFLNRWITFCQSIISTLT | – |
| – | – | binds | yeast-displayed IL-2 clone H9 (ligand, Clone of the second generation yeast library; not shown: yeast display fusion partner and linker encoded by vector pCT302) APTSSSTKKTQLQLEHLLLDLQMILNGINNYKNPKLTRMLTFKFYMPKKATELKHLQCLEEELKPLEEVLNLAQSKNFHFDPRDVVSNINVFVLELKGSETTFMCEYADETATIVEFLNRWITFCQSIISTLT | – |
| – | – | binds | yeast-displayed IL-2 clone C5 (ligand, Clone of the second generation yeast library; not shown: yeast display fusion partner and linker encoded by vector pCT302) APTSSSTKKTQLQLEHLLLDLQMILNGINNYKNPKLTRMLTFKFYMPKKATELKHLQCLEEELKPLEEVLNLANSKNFHVTPRDVVSNINVFVLELKGSETTFMCEYADETATIVEFLNRWITFCQSIISTLT | – |
| – | – | binds | yeast-displayed IL-2 clone H4 (ligand, Clone of the second generation yeast library; not shown: yeast display fusion partner and linker encoded by vector pCT302) APTSSSTKKTQLQLEHLLLDLQMILNGINNYKNPKLTRMLTFKFYMPKKATELKHLQCLEEELKPLEEVLNLASSKNFHLTPRDVISNINVFVLELKGSETTFMCEYADETATIVEFLNRWITFCQSIISTLT | – |
